# Test results as given in IntAct's records for PubMed 21119616.
# B1: Retinoblastoma-associated protein (Homo sapiens), P06400 (parent)
# chain: MPPKTPRKTAATAAAAAAEPPAPPPPPPPEEDPEQDSGPEDLPLVRLEFEETEEPDFTALCQKLKIPDHVRERAWLTWEKVSSVDGVLGGYIQKKKELWGICIFIAAVDLDEMSFTFTELQKNIEISVHKFFNLLKEIDTSTKVDNAMSRLLKKYDVLFALFSKLERTCELIYLTQPSSSISTEINSALVLKVSWITFLLAKGEVLQMEDDLVISFQLMLCVLDYFIKLSPPMLLKEPYKTAVIPINGSPRTPRRGQNRSARIAKQLENDTRIIEVLCKEHECNIDEVKNVYFKNFIPFMNSLGLVTSNGLPEVENLSKRYEEIYLKNKDLDARLFLDHDKTLQTDSIDSFETQRTPRKSNLDEEVNVIPPHTPVRTVMNTIQQLMMILNSASDQPSENLISYFNNCTVNPKESILKRVKDIGYIFKEKFAKAVGQGCVEIGSQRYKLGVRLYYRVMESMLKSEEERLSIQNFSKLLNDNIFHMSLLACALEVVMATYSRSTSQNLDSGTDLSFPWILNVLNLKAFDFYKVIESFIKAEGNLTREMIKHLERCEHRIMESLAWLSDSPLFDLIKQSKDREGPTDHLESACPLNLPLQNNHTAADMYLSPVRSPKKKGSTTRVNSTANAETQATSAFQTQKPLKSTSLSLFYKKVYRLAYLRLNTLCERLLSEHPELEHIIWTLFQHTLQNEYELMRDRHLDQIMMCSMYGICKVKNIDLKFKIIVTAYKDLPHAVQETFKRVLIKEEEYDSIIVFYNSVFMQRLKTNILQYASTRPPTLSPIPHIPRSPYKFPSSPLRIPGGNIYISPLKSPYKISEGLPTPTKMTPRSRILVSIGESFGTSEKFQKINQMVCNSDRVLKRSAEGSNPPKPLKKLRFDIEGSDEADGSKHLPGESKFQQKLAEMTSTRTRMQKQKMNDSMDTSNKEEK
# partner: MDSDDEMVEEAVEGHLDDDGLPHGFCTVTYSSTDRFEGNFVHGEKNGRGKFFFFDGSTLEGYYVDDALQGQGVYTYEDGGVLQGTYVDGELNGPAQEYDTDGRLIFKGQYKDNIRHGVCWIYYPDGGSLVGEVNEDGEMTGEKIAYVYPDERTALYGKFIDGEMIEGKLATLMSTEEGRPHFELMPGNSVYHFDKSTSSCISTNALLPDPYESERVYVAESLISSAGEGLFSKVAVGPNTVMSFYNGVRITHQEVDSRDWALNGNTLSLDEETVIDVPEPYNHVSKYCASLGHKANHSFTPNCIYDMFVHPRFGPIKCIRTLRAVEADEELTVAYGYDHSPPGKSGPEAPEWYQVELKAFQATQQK
# Variants of: B1
# Details: with setd7_human SETD7, Q8WTS6
row,Variant,effect of a mutation on the interaction
1,K810R,disrupting interaction
